Assay results as given in the supplement of paper PMC10567573.

B1: ANKRD40 (parent)
chain: VCCCELGVNPDQVEKIRKLPNTLL
B2: SNX8 (parent)
chain: RMVPALPPKRMLGADREFIEARRR

Variants of: B1
Test: protein stability index of a GFP-peptide fusion (GPS, HEK-293T) (PSI 1-6); higher = more stable
Conditions: c terminus: a fixed tail appended
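Note: lentivirally expressed fusions sorted by FACS into six bins by GFP to DsRed ratio, PSI derived from sequencing read proportions per bin multiplied by bin number.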

Protein stability index, by site and new letter:
T22: K 2.1 | N 1.71 | L 2.73 | R 2.02 | Q 1.63 | S 1.79 | W 2.01 | M 2.1 | V 1.33 | P 2.21 | Y 1.63
L23: K 2.36 | S 2.25 | Y 1.45 | C 1.71 | I 1.6 | D 2.31 | P 2.75 | H 2.67 | G 2.51 | V 2.25 | M 1.89 | W 2.9 | A 1.98 | Q 2.35 | N 2.05 | F 1.51 | T 2.33 | R 1.66 | E 3.05
L24: P 2.12 | K 2.09 | R 1.38 | N 2.61 | C 2.12 | W 2.1 | Y 1.84 | G 2.56 | F 2.04 | E 2.62 | M 1.8 | Q 2.48 | T 1.94 | D 3.15 | I 1.95 | A 1.71 | V 1.96 | S 2.49 | H 2.02

Variants of: B2
Test: as above
Conditions: c terminus: a fixed tail appended

Protein stability index: each site, then its substitutions
V3: E 4.49 | F 2.99 | P 3.81 | S 3.88 | A 3.31 | Q 3.9 | G 3.07 | K 4.11 | T 4.1 | H 3.54 | W 1.7 | N 4.08 | I 2.38 | C 3.5 | R 3.94 | M 1.29 | L 1.85 | D 4.63 | Y 2.96
A14: V 3.02 | D 4.19 | Q 3.81 | C 3.52 | E 4.34 | N 4.72 | F 3.37 | G 3.96 | M 3.24 | H 3.71 | L 3.55 | I 3.54 | T 3.63 | K 3.84 | P 4 | Y 2.88 | W 2.51 | R 3.73 | S 3.9
R1: N 2.71 | H 2.3 | G 3.77 | P 3.83 | F 2.22 | T 2.69 | M 2.88 | W 1.94 | Q 3.54 | V 3.18 | E 3.56 | D 2.87 | K 3.74 | I 3.21 | S 3.8 | L 1.96 | C 3.28 | Y 1.81 | A 3.86
P7: S 4.08 | W 3.3 | R 3.76 | N 3.45 | H 3.75 | G 4.01 | V 4.05 | M 3.52 | Y 3.49 | E 4.35 | Q 3.5 | D 3.87 | K 3.91 | C 2.91 | L 3.18 | T 3.6 | F 3.4 | I 3.62 | A 3.58
M11: H 3.52 | E 3.91 | L 3.69 | W 2.54 | N 3.77 | K 3.94 | I 4.78 | A 3.86 | V 3.37 | P 4.42 | Q 3.6 | C 3.46 | R 4.58 | S 4.23 | T 4.27 | G 4.28 | F 3.36 | D 4.62 | Y 2.99
P4: H 3.09 | Y 3.31 | D 3.57 | E 3.67 | W 2.77 | F 2.98 | I 2.52 | M 3.1 | A 3.32 | K 3.81 | V 3.58 | N 3.41 | C 3.62 | Q 3.49 | S 3.69 | R 4.13 | T 3.34 | L 2.28 | G 3.87
P8: H 3.85 | R 3.88 | T 3.31 | S 3.73 | Q 3.79 | L 3.17 | G 3.53 | V 3.44 | N 3.79 | I 3.02 | W 3.31 | K 3.87 | Y 3.88 | C 2.77 | D 3.82 | M 3.06 | E 3.86 | F 3.18 | A 4.23
A5: R 4.31 | Y 3.12 | C 3.85 | I 3.2 | K 3.77 | G 3.84 | S 4.05 | V 4.01 | Q 4.1 | M 3.49 | N 4.08 | F 3.24 | P 3.59 | E 4.12 | W 3.06 | D 4.23 | T 3.81 | H 3.75 | L 4
K9: L 4.01 | Y 3.95 | S 4.35 | M 3.81 | A 4.09 | R 2.99 | P 4.37 | Q 4.73 | V 4.61 | H 4.53 | W 4.02 | N 4.26 | D 4.12 | E 4.12 | F 3.83 | G 3.6 | T 3.64 | I 4.17 | C 2.95
R10: T 4.24 | V 4.04 | P 4.44 | Y 3.71 | E 4.84 | N 3.98 | Q 4.39 | C 3.61 | D 4.61 | L 3.5 | S 4.05 | A 4.23 | H 4.21 | F 3.39 | M 4.06 | I 3.94 | K 3.81 | G 4.16
D15: V 2.15 | W 2.5 | K 3.16 | P 4.16 | F 1.99 | C 2.42 | N 3.43 | I 1.91 | A 2.77 | H 3.22 | Q 3.93 | M 1.56 | S 3.77 | Y 2.64 | L 1.52 | T 3.69 | G 3.98 | E 3.52
R16: D 4.07 | E 4.41 | A 4.04 | C 3.53
M2: H 4.04 | F 3.44 | N 3.99 | A 3.94 | E 4.52 | Y 3.57 | C 3.22 | L 2.76 | W 2.14 | K 4.1 | P 4.53 | D 4.17 | R 3.94 | I 3.01 | S 4.46 | Q 4.57 | G 3.83 | T 4.08 | V 3.58
L6: M 3.73 | F 3.45 | R 4.3 | Y 3.39 | G 3.88 | C 3.67 | Q 4.02 | N 3.96 | K 3.73 | S 4.84 | V 3.97 | T 3.63 | I 3.96 | W 3.15 | D 4.44 | A 4 | E 4.52
G13: P 2.83 | W 2.17 | E 3.57 | H 3.37 | V 2.54 | I 2.79 | S 3.54 | F 2.22 | T 3.14 | L 2.69 | D 3.79 | K 3.72 | C 2.17 | N 3.29 | M 2.43 | A 2.81 | Y 3.13 | R 4.06 | Q 3.25
L12: T 4.43 | Y 3.73 | D 4.54 | F 4.12 | A 4.53 | S 4.41 | W 4.05 | R 4.19 | V 4.42 | K 3.25 | H 4 | N 4.89 | E 5.11 | G 4.66 | Q 4.61 | I 4.08 | C 3.91 | M 3.95 | P 4.18
